Columns and labels:
HeLa Kyoto [1] = assay: solubility change mitosis vs G1/S (difference of NP-40 vs SDS log2 ratios) (log2 ratio difference); higher = more soluble in mitosis
HeLa Kyoto [2] = assay: solubility in G1/S (NP-40 vs SDS abundance) (log2 ratio); higher = more soluble; details: cell cycle stage: G1/S
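Wherever solubility change mitosis vs G1/S (difference of NP-40 vs SDS log2 ratios) is given: synchronized HeLa Kyoto cells (double thymidine block for G1/S, nocodazole release for mitosis), protein amounts in NP-40 versus SDS lysates quantified by mass spectrometry, three biological replicates.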
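Wherever solubility in G1/S (NP-40 vs SDS abundance) is given: HeLa Kyoto cells arrested at G1/S by double thymidine block, proteins quantified by TMT10plex mass spectrometry in mild NP-40 versus SDS extracts, three biological replicates.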

Sequence	solubility change mitosis (log2) (HeLa Kyoto [1])	solubility in G1/S (log2) (HeLa Kyoto [2])
MAGAGGQHHPPGAAGGAAAGAGAAVTSAAASAGPGEDSSDSEAEQEGPQKLIRKVSTSGQIRTKTSIKEGQLLKQTSSFQRWKKRYFKLRGRTLYYAKDSKSLIFDEVDLSDASVAEASTKNANNSFTIITPFRRLMLCAENRKEMEDWISSLKSVQTREPYEVAQFNVEHFSGMHNWYACSHARPTFCNVCRESLSGVTSHGLSCEVCKFKAHKRCAVRATNNCKWTTLASIGKDIIEDEDGVAMPHQWLEGNLPVSAKCAVCDKTCGSVLRLQDWKCLWCKTMVHTACKDLYHPICPLGQCKVSIIPPIALNSTDSDGFCRATFSFCVSPLLVFVNSKSGDNQGVKFLRRFKQLLNPAQVFDLMNGGPHLGLRLFQKFDNFRILVCGGDGSVGWVLSEIDKLNLNKQCQLGVLPLGTGNDLARVLGWGGSYDDDTQLPQILEKLERASTKMLDRWSIMTYELKLPPKASLLPGPPEASEEFYMTIYEDSVATHLTKILNSDEHAVVISSAKTLCETVKDFVAKVEKTYDKTLENAVVADAVASKCSVLNEKLEQLLQALHTDSQAAPVLPGLSPLIVEEDAVESSSEESLGESKEQLGDDVTKPSSQKAVKPREIMLRANSLKKAVRQVIEEAGKVMDDPTVHPCEPANQSSDYDSTETDESKEEAKDDGAKESITVKTAPRSPDARASYGHSQTDSVPGPAVAASKENLPVLNTRIICPGLRAGLAASIAGSSIINKMLLANIDPFGATPFIDPDLDSVDGYSEKCVMNNYFGIGLDAKISLEFNNKREEHPEKCRSRTKNLMWYGVLGTRELLQRSYKNLEQRVQLECDGQYIPLPSLQGIAVLNIPSYAGGTNFWGGTKEDDIFAAPSFDDKILEVVAIFDSMQMAVSRVIKLQHHRIAQCRTVKITIFGDEGVPVQVDGEAWVQPPGIIKIVHKNRAQMLTRDRAFESTLKSWEDKQKCDSGKPVLRTHLYIHHAIDLATEEVSQMQLCSQAAEELITRICDAATIHCLLEQELAHAVNACSHALNKANPRCPESLTRDTATEIAINVKALYNETESLLVGRVPLQLESPHEERVSNALHSVEVELQKLTEIPWLYYILHPNEDEEPPMDCTKRNNRSTVFRIVPKFKKEKVQKQKTSSQPVQKWGTEEVAAWLDLLNLGEYKDIFIRHDIRGAELLHLERRDLKDLGIPKVGHVKRILQGIKELGRSTPQSEV [DGKH]	0.0195	-0.212
MAGEEINEDYPVEIHEYLSAFENSIGAVDEMLKTMMSVSRNELLQKLDPLEQAKVDLVSAYTLNSMFWVYLATQGVNPKEHPVKQELERIRVYMNRVKEITDKKKAGKLDRGAASRFVKNALWEPKSKNASKVANKGKSKS [C1D]	0.679	-0.223
MAGNKGRGRAAYTFNIEAVGFSKGEKLPDVVLKPPPLFPDTDYKPVPLKTGEGEEYMLALKQELRETMKRMPYFIETPEERQDIERYSKRYMKVYKEEWIPDWRRLPREMMPRNKCKKAGPKPKKAKDAGKGTPLTNTEDVLKKMEELEKRGDGEKSDEENEEKEGSKEKSKEGDDDDDDDAAEQEEYDEEEQEEENDYINSYFEDGDDFGADSDDNMDEATY [POLR3G]	-0.0224	0.214
MAGPAPPVADELPGPAARRLYSRMEASCLELALEGERLCKAGDFKTGVAFFEAAVQVGTEDLKTLSAIYSQLGNAYFYLKEHGRALEYHKHDLLLARTIGDRMGEAKASGNLGNTLKVLGRFDEAAVCCQRHLSIAQEQGDKVGEARALYNIGNVYHAKGKQLSWNAANATQDPGHLPPDVRETLCKASEFYERNLSLVKELGDRAAQGRAYGNLGNTHYLLGNFTEATTFHKERLAIAKEFGDKAAERRAYSNLGNAHVFLGRFDVAAEYYKKTLQLSRQLRDQAVEAQACYSLGNTYTLLQDYERAAEYHLRHLLIAQELADRVGEGRACWSLGNAYVSMGRPAQALTFAKKHLQISQEIGDRHGELTARMNVAQLQLVLGRLTSPAASEKPDLAGYEAQGARPKRTQRLSAETWDLLRLPLEREQNGDSHHSGDWRGPSRDSLPLPVRSRKYQEGPDAERRPREGSHSPLDSADVRVHVPRTSIPRAPSSDEECFFDLLTKFQSSRMDDQRCPLDDGQAGAAEATAAPTLEDRIAQPSMTASPQTEEFFDLIASSQSRRLDDQRASVGSLPGLRITHSNAGHLRGHGEPQEPGDDFFNMLIKYQSSRIDDQRCPPPDVLPRGPTMPDEDFFSLIQRVQAKRMDEQRVDLAGGPEQGAGGPPEPQQQCQPGAS [GPSM1]	-0.0781	0.244
MAGPGSTGGQIGAAALAGGARSKVAPSVDFDHSCSDSVEYLTLNFGPFETVHRWRRLPPCDEFVGARRSKHTVVAYKDAIYVFGGDNGKTMLNDLLRFDVKDCSWCRAFTTGTPPAPRYHHSAVVYGSSMFVFGGYTGDIYSNSNLKNKNDLFEYKFATGQWTEWKIEGRLPVARSAHGATVYSDKLWIFAGYDGNARLNDMWTIGLQDRELTCWEEVAQSGEIPPSCCNFPVAVCRDKMFVFSGQSGAKITNNLFQFEFKDKTWTRIPTEHLLRGSPPPPQRRYGHTMVAFDRHLYVFGGAADNTLPNELHCYDVDFQTWEVVQPSSDSEVGGAEVPERACASEEVPTLTYEERVGFKKSRDVFGLDFGTTSAKQPTQPASELPSGRLFHAAAVISDAMYIFGGTVDNNIRSGEMYRFQFSCYPKCTLHEDYGRLWESRQFCDVEFVLGEKEECVQGHVAIVTARSRWLRRKITQARERLAQKLEQEAAPVPREAPGVAAGGARPPLLHVAIREAEARPFEVLMQFLYTDKIKYPRKGHVEDVLLIMDVYKLALSFQLCRLEQLCRQYIEASVDLQNVLVVCESAARLQLSQLKEHCLNFVVKESHFNQVIMMKEFERLSSPLIVEIVRRKQQPPPRTPLDQPVDIGTSLIQDMKAYLEGAGAEFCDITLLLDGHPRPAHKAILAARSSYFEAMFRSFMPEDGQVNISIGEMVPSRQAFESMLRYIYYGEVNMPPEDSLYLFAAPYYYGFYNNRLQAYCKQNLEMNVTVQNVLQILEAADKTQALDMKRHCLHIIVHQFTKVSKLPTLRSLSQQLLLDIIDSLASHISDKQCAELGADI [LZTR1]	-0.0816	-0.115
MAGQEDPVQREIHQDWANREYIEIITSSIKKIADFLNSFDMSCRSRLATLNEKLTALERRIEYIEARVTKGETLT [BRK1]	0.228	-0.551
MAKAGDKSSSSGKKSLKRKAAAEELQEAAGAGDGATENGVQPPKAAAFPPGFSISEIKNKQRRHLMFTRWKQQQRKEKLAAKKKLKKEREALGDKAPPKPVPKTIDNQRVYDETTVDPNDEEVAYDEATDEFASYFNKQTSPKILITTSDRPHGRTVRLCEQLSTVIPNSHVYYRRGLALKKIIPQCIARDFTDLIVINEDRKTPNGLILSHLPNGPTAHFKMSSVRLRKEIKRRGKDPTEHIPEIILNNFTTRLGHSIGRMFASLFPHNPQFIGRQVATFHNQRDYIFFRFHRYIFRSEKKVGIQELGPRFTLKLRSLQKGTFDSKYGEYEWVHKPREMDTSRRKFHL [RPF1]	0.774	-1.77
MAKDAGLIEANGELKVFIDQNLSPGKGVVSLVAVHPSTVNPLGKQLLPKTFGQSNVNIAQQVVIGTPQRPAASNTLVVGSPHTPSTHFASQNQPSDSSPWSAGKRNRKGEKNGKGLRHFSMKVCEKVQRKGTTSYNEVADELVAEFSAADNHILPNESAYDQKNIRRRVYDALNVLMAMNIISKEKKEIKWIGLPTNSAQECQNLEVERQRRLERIKQKQSQLQELILQQIAFKNLVQRNRHAEQQASRPPPPNSVIHLPFIIVNTSKKTVIDCSISNDKFEYLFNFDNTFEIHDDIEVLKRMGMACGLESGSCSAEDLKMARSLVPKALEPYVTEMAQGTVGGVFITTAGSTSNGTRFSASDLTNGADGMLATSSNGSQYSGSRVETPVSYVGEDDEEDDDFNENDEDD [TFDP1]	-0.176	0.136
MAKSPENSTLEEILGQYQRSLREHASRSIHQLTCALKEGDVTIGEDAPNLSFSTSVGNEDARTAWPELQQSHAVNQLKDLLRQQADKESEVSPSRRRKMSPLRSLEHEETNMPTMHDLVHTINDQSQYIHHLEAEVKFCKEELSGMKNKIQVVVLENEGLQQQLKSQRQEETLREQTLLDASGNMHNSWITTGEDSGVGETSKRPFSHDNADFGKAASAGEQLELEKLKLTYEEKCEIEESQLKFLRNDLAEYQRTCEDLKEQLKHKEFLLAANTCNRVGGLCLKCAQHEAVLSQTHTNVHMQTIERLVKERDDLMSALVSVRSSLADTQQREASAYEQVKQVLQISEEANFEKTKALIQCDQLRKELERQAERLEKELASQQEKRAIEKDMMKKEITKEREYMGSKMLILSQNIAQLEAQVEKVTKEKISAINQLEEIQSQLASREMDVTKVCGEMRYQLNKTNMEKDEAEKEHREFRAKTNRDLEIKDQEIEKLRIELDESKQHLEQEQQKAALAREECLRLTELLGESEHQLHLTRQEKDSIQQSFSKEAKAQALQAQQREQELTQKIQQMEAQHDKTENEQYLLLTSQNTFLTKLKEECCTLAKKLEQISQKTRSEIAQLSQEKRYTYDKLGKLQRRNEELEEQCVQHGRVHETMKQRLRQLDKHSQATAQQLVQLLSKQNQLLLERQSLSEEVDRLRTQLPSMPQSDC [SDCCAG8]	0.0872	0.52
MALLRKINQVLLFLLIVTLCVILYKKVHKGTVPKNDADDESETPEELEEEIPVVICAAAGRMGATMAAINSIYSNTDANILFYVVGLRNTLTRIRKWIEHSKLREINFKIVEFNPMVLKGKIRPDSSRPELLQPLNFVRFYLPLLIHQHEKVIYLDDDVIVQGDIQELYDTTLALGHAAAFSDDCDLPSAQDINRLVGLQNTYMGYLDYRKKAIKDLGISPSTCSFNPGVIVANMTEWKHQRITKQLEKWMQKNVEENLYSSSLGGGVATSPMLIVFHGKYSTINPLWHIRHLGWNPDARYSEHFLQEAKLLHWNGRHKPWDFPSVHNDLWESWFVPDPAGIFKLNHHS [GLT8D2]	-0.357	0.233
MALRLLRRAARGAAAAALLRLKASLAADIPRLGYSSSSHHKYIPRRAVLYVPGNDEKKIKKIPSLNVDCAVLDCEDGVAANKKNEARLRIVKTLEDIDLGPTEKCVRVNSVSSGLAEEDLETLLQSRVLPSSLMLPKVESPEEIQWFADKFSFHLKGRKLEQPMNLIPFVETAMGLLNFKAVCEETLKVGPQVGLFLDAVVFGGEDFRASIGATSSKETLDILYARQKIVVIAKAFGLQAIDLVYIDFRDGAGLLRQSREGAAMGFTGKQVIHPNQIAVVQEQFSPSPEKIKWAEELIAAFKEHQQLGKGAFTFQGSMIDMPLLKQAQNTVTLATSIKEK [CLYBL]	0.0246	-0.168
MAMVVSSWRDPQDDVAGGNPGGPNPAAQAARGGGGGAGEQQQQAGSGAPHTPQTPGQPGAPATPGTAGDKGQGPPGSGQSQQHIECVVCGDKSSGKHYGQFTCEGCKSFFKRSVRRNLTYTCRANRNCPIDQHHRNQCQYCRLKKCLKVGMRREAVQRGRMPPTQPNPGQYALTNGDPLNGHCYLSGYISLLLRAEPYPTSRYGSQCMQPNNIMGIENICELAARLLFSAVEWARNIPFFPDLQITDQVSLLRLTWSELFVLNAAQCSMPLHVAPLLAAAGLHASPMSADRVVAFMDHIRIFQEQVEKLKALHVDSAEYSCLKAIVLFTSDACGLSDAAHIESLQEKSQCALEEYVRSQYPNQPSRFGKLLLRLPSLRTVSSSVIEQLFFVRLVGKTPIETLIRDMLLSGSSFNWPYMSIQCS [NR2F1]	0.0314	-0.152

From the supplement of paper PMC5998384
